Where a chain is given by its changes, count along the chain named. Numbers in names are those of the source.
B1: GtrB from Synechocystis sp. PCC6803 (enzyme, Synechocystis sp. PCC 6803, UniProt Q55487 1-318, looked up)
chain: MTIELSIVIPMYNEEDNLEHLFARLLEVLTPLKITYEIICVNDGSKDKTLKQLIDCYQSNRQIKIVNLSRNFGKEIALSAGIDYAQGNAVIPIDADLQDPPELIHELVDKWREGYDIVYATRRSRQGETWVKQFTAKMFYKVIGRMTEIKIPPNTGDFRLMDRKVVNAIKQLPERTRFMKGLFAWVGYRQTFVLFDREPRFQGQTKWNYWKLWNFALDGIFSFSLLPLKVWTYLGSIISLLSLAYASFLILKTITLGVDVPGYASLMVAILFLGGVQLISLGVIGEYLGRVYEEVKARPLYLVSDLWGLEYLPLEKLN
notes: GtrB, polyisoprenyl-phosphate glycosyltransferase, Synechocystis sp; PCC 6803, UniProt Q55487; open reading frame amplified from genomic DNA; a TEV protease cleavage site stands between the tag and the protein; Vector pMCSG7; A selenomethionine-substituted form was used for phasing only; In the deposited coordinates each protomer is divided into two chains; also called GtrBSyn; WT
B2: GtrB from Synechocystis sp. PCC6803, point mutant F215A (enzyme, Synechocystis sp. PCC 6803, UniProt Q55487 1-318, looked up)
chain: B1 chain with F215A
notes: GtrB, Synechocystis sp; PCC 6803, UniProt Q55487, same construct as m1 with the point mutation F215A (QuikChange); also called GtrB (F215A); source: E. coli, purified and crystallized in the same way as the wild type

Target: the molecule itself
Test: crystal structure; purified protein in n-decyl-beta-D-maltopyranoside (DM); sitting drop vapour diffusion at 22 °C, 16-18% PEG600, 0.12 M Tris/HCl pH 9.0, 0.1 M NaCl, 1 mM TCEP; crystals soaked with 5 mM MnCl2 and 25 mM UDP-glucose; space group C2, one tetramer in the asymmetric unit

Protein | stoichiometry N | binding result
B1 | 4 | 
B2 |  | binds

From publication PMC4728340, “Structure of the polyisoprenyl-phosphate glycosyltransferase GtrB and insights into the mechanism of catalysis” (Nature Communications, 2016)
